The term Km denotes the concentration of substrate that gives half-maximal velocity. Usually Vmax stands for the top rate of the reaction or transport when substrate is in excess.

Here are results for one molecule from patent publication US10947270B2, “Targeted prodrug cytosine deaminase fusion carrier and application thereof” (National Yang-Ming University, priority 2015, dated 2021).

A short description of data set [1]: Enzyme kinetic analysis of EcCD series fusion proteins, substrate cytosine. It is filed as biochemical. The text has this:
FIGS. 11A-11D show the activity and kinetics analysis of EcCD series fusion protein enzymes, and the EcCD series proteins are combined with 5-FC at different concentrations for reaction. Respectively calculate the 5-FU formation reaction rate shown in FIG. 11A, 5-FC consumption reaction rate shown in FIG. 10B, uracil formation reaction rate shown in FIG. 10C and cytosine consumption reaction rate shown in FIG. 10D, substitute Michaelis-Menten formula, and calculate the base mass (Kcat) and Km value catalyzed by each mol enzyme in unit time. […]

The nature of data set [2]: Enzyme stability of EcCD series fusion protein and yCD protein in FBS or transferrin. Conditions: 37° C.; for enzyme activity: 24 hours. It is filed as in vitro ADME. The method, then:
FIGS. 12A-12C show an enzyme stability analysis of EcCD series fusion protein and yCD protein.
Previous literature reports indicate that the thermostability of E. coli cytosine deaminase (EcCD) is better than that of yCD. […] In order to simulate the environment of the protein in the cell killing test, the EcCD series fusion protein and the yCD protein are cultured in 10% FBS at 37° C. for 0, 1, 2, 4, 24 hours, and then determine the enzyme kinetics. It can be observed from the results that the yCD protein is cultured in 10% FBS for 1 hour, the enzyme activity is reduced to 80%, and when cultured for 2 and 4 hours, the enzyme activity is reduced to 50% and 20%, respectively, and the enzyme activity is lost after culturing for 24 hours, while the EcCD series fusion protein is similar to the culture in 100% FBS, which can maintain the original enzyme activity (see FIG. 12B). The literature points out that the metal ion of the enzyme catalytic center will affect the stability of the enzyme. In the yCD protein involved in the enzyme reaction, the metal ion of the enzyme catalytic center has a considerable relationship with the enzyme activity. The protein associated with transporting metal ions in serum is transferrin. It is speculated that transferrin may be related to the enzyme activity of yCD protein. Therefore, the EcCD series fusion protein and yCD protein are co-cultured respectively with transferrin at a concentration of 3 mg/ml (normal concentration 2.1-3.4 mg/mL) at 37° C. for 0, 1, 2, 4, 24 hours, then determine the enzyme kinetics (see FIG. 12C), it is known from the results that the longer the yCD protein is cultured in the transferrin, the lower the enzyme activity will be. […] This trend is similar to the culture at 10% in FBS. It is speculated that the factor of reducing the activity of yCD protein in FBS has a great relationship with transferrin. The stability of yCD protein in FBS is poor, and the stability of EcCD series fusion protein is better, so the industrial use of EcCD series fusion protein in both sexual and therapeutic applications is better than that of yCD protein, and it is also confirmed that the mutation of RGD4C peptide and D314A will not affect the enzyme stability of EcCD protein.

A short description of data set [3]: Enzyme activity and kinetic analysis of yCD series recombinant proteins (5-FC converted into 5-FU). It is filed as biochemical. Conditions: 50 nM protein. As for the experimental part:
FIGS. 2A-2B show the enzyme activities of RGD4C-yCD, yCD, RGD4C-yCD/UPRT and yCD/UPRT proteins to convert 5-FC to 5-FU. 50 nM of RGD4C-yCD, yCD, RGD4C-yCD/UPRT or yCD/UPRT protein reacted with increasing concentrations of 5-FC in phosphate buffered saline solutions. […] The measured data was used to plot the enzyme kinetic curve that takes the substrate concentration [S] as the x-axis and takes the initial reaction rate V0 as the y-axis,
The enzyme activity of 5-FC converted into 5-FU by RGD4C-yCD, yCD, RGD4C-yCD/UPRT and yCD/UPRT is performed. The recombinant protein concentration (50 nM) added with 5-FC at different concentrations. The 5-FC consumption and the generated amount of 5-FU is calculated. The measured data is taken as the x-axis by the substrate concentration [S]; the initial reaction rate V0 is the kinetic curve by making a diagramthe with y-axis (see FIG. 2A and FIG. 2B); the non-linear regression is made by the prism software according to the Michaelis-Menten equation; calculate the enzyme kinetic parameter Km and Vmax. […] It is speculated that the yCD function in each fusion protein is similar, but yUPRT may affect the effects of yCD and 5-FC.

Data set [4] can be described thus: Enzyme kinetic analysis of yCD series proteins after DTPA modification, marking and purification. It is filed as biochemical. The text has this:
The enzyme activity of yCD is not affected by DTPA modification.
FIGS. 24A-24B show the kinetic curve of yCD series protein modified, labeled and purified by DTPA. The enzyme activity of the two proteins is not affected by the labeling conditions. After adding EDTA with a 10-fold molar excess of protein, and it is competitively purified, In-DTPA-yCD compared with the original enzyme activity.
The curve and enzyme kinetic parameters (see FIG. 18 and Table 13) are fitted by the […] protein enzyme kinetics through the Michaelis-Menten formula in the Graph prism program.
Before the protein is labeled by radioisotope, its enzyme function must be determined, and based on the original enzyme function, it should be examined whether it will be affected during the radioactive marking process. The curve and enzyme kinetic parameters of protein are fitted by the Michaelis-Menten formula in the Graph prism program. […] Whether the yCD and RGD4C-yCD protein detected by the same method will be affected under the conditions of DTPA modification, marking and purification. […] After the completion of the radioactive metal mark, it is necessary to add EDTA of 10-fold protein Moire number and react at room temperature for 1 hour to compete for the radioactive metal isotope indium which is not chelated on DTPA. The EDTA in this step also has the chance to chelate the metal zinc ion of the enzyme catalytic center, the enzyme activity is impaired, so it is necessary to analyze the enzyme activity of In-DTPA-yCD and In-RGD4C-yCD protein after competition with EDTA. After the EDTA competitive reaction is completed, the enzyme kinetics analysis can be carried out by reducing the EDTA molecule weight through membrane centrifugation method and by replacing the solution with pH 7.0. […] The curve and receptor binding ability parameters of the protein and integrin αvβ3 are fitted under the conditions of DTPA modification, marking and purification by the One site-Specific binding formula in the Graph prism program (see FIG. 25 and Table 18). […] Although the two proteins after marking are greatly affected by the enzyme activity, they still have good binding ability to the integrin αvβ3 receptor. In consideration of the indispensability of EDTA for radiochemical purity, it retains a considerable amount of enzyme activity. In addition, the effect of integrin αvβ3 receptor binding ability is minimal, in combination of cell uptake, biodistribution and angiography experiment, focusing on the evaluation of target results, and the subsequent biological experiment is still carried out by the marking and purification conditions.

B1: yCD: yeast cytosine deaminase (yCD) (SEQ ID NO: 1), recombinant protein without target molecule (protein)
chain: MVVTGGMASKWDQKGMDIAYEEAALGYKEGGVPIGGCLINNKDGSVLGRGHNMRFQKGSATLHGEISTLENCGRLEGKVYKDTTLYTTLSPCDMCTGAIIMYGIPRCVVGENVNFKSKGEKYLQTRGHEVVVVDDERCKKIMKQFIDERPQDWFEDIGELEHHHHHH
modifications: yCD
As to B1, the Kcat in data set [1] (cytosine consumption) amounted to 55.6 ± 8.5 s⁻¹; in data set [1] (uracil generation) it was 54.6 ± 1.3 s⁻¹. Moreover, the Km in data set [1] (cytosine consumption) is 4700 ± 1300 µM; in data set [1] (uracil generation), 3900 ± 200 µM; in data set [3] (calculated by 5-FC consumption), 700 ± 100 µM; in data set [3] (calculated by 5-FU formation) it was 1000 ± 100 µM; in data set [4], 840 ± 71.9 µM. The “enzyme activity” value is on record as “close to the loss of activity” in data set [2] (3 mg/ml transferrin) and “lost” in data set [2] (10% FBS). In addition, the “enzyme activity (Kcat/Km relative to 0 hours)” value in data set [2] (10% FBS, 1 hour) stood at 80%; in data set [2] (10% FBS, 2 hours) it was 50%; in data set [2] (10% FBS, 4 hours) it was 20%. Besides, the Vmax in data set [3] (calculated by 5-FC consumption) was 175.8 ± 4.7 µM/min; in data set [3] (calculated by 5-FU formation), 164.2 ± 4.7 µM/min; in data set [4], 264.1 ± 8.256 µM/min.
